The values below come from patent publication US20060247419A1, “Translocation dependent complementation for drug screening” (BioImage A/S, priority 2002, published 2006).

Test [1] concerns the target FRB-CtermEYFP173 (human; Aequorea victoria) (UniProt P42345). In words: cell-based or functional assay.
Test [2] has as its target FKBP and FRB (FKBP binding part of FRAP) (Homo sapiens, UniProt P42345+P62942). In words: Rapamycin-inducible FKBP:FRB split-EYFP complementation, CHO-hIR [PS1767+PS1768] cells. The note with it: 1 μM rapamycin. The class given is cell-based.
Description: Probes were co-transfected in pairs into CHO-hIR cells (supra), PS1769 with PS1771 and PS1767 with PS1768, using the transfection agent FuGENE™ 6 (Boehringer Mannheim Corp, USA) according to the method recommended by the suppliers. Cells were cultured in growth medium (HAM's F12 nutrient mix with Glutamax-1, 10% foetal bovine serum (FBS), 100 μg penicillin-streptomycin mixture ml^−1 (GibcoBRL, supplied by Life Technologies, Denmark)). Transfected cells were cultured in this medium, with the addition of two selection agents appropriate to the plasmids being used, being 1 mg/ml zeocin plus 0.5 mg/mlG418 sulphate. Cells were cultured at 37° C. in 100% humidity and conditions of normal atmospheric gases supplemented with 5% CO2.
After 10 to 12 days culture in the continuous presence of the selection agents, the resulting cell lines were judged to be stably transfected. For fluorescence microscopy, aliquots of cells were transferred to Lab-Tek chambered cover glasses (Nalge Nunc International, Naperville USA) and allowed to adhere for at least 24 hours to reach about 80% confluence. Images were routinely collected using a Nikon Diaphot 300 inverted fluorescence microscope (Nikon Corp., Tokyo, Japan) using x20 (dry) and/or x40 (oil immersion) objectives and coupled to a Orca ER charged coupled device (CCD) camera (Hammamatsu Photonics K.K., Hammamatsu City, Japan). […]
The target of test [3] is FKBP-CtermEYFP173 (human; Aequorea victoria) (UniProt P62942). In words: cell-based or functional assay.
The subject of test [4] is β-catenin translocation to the nucleus and interaction with TCF4 (GSK3β inhibited by lithium ions). In words: TIDC: β-catenin translocation and β-catenin:TCF4 interaction dependent complementation, CHO[ps1706+ps1810]. The format is cell-based, chinese hamster. The conditions noted are these: 5 mM LiCl for 16 hours. The text has this:
In this example, complementary halves of GFP are fused separately to β-catenin and also to histone H2B coupled to the β-catenin-binding fragment of the transcriptional co-activator TCF4. Both constructs are then co-transfected and expressed within mammalian cells. The β-catenin construct is expected to be localised entirely in the cell cytoplasm at a low level, its concentration effectively controlled by the activity of the protein kinase GSK3β. The H2B-TCF4 construct will be localised in the nuclei of cells by the highly basic histone moeity. […] The development of nuclear fluorescence in lithium-treated cells therefore effectively reports on the combined result of translocation of β-catenin to the nucleus and the subsequent interaction between β-catenin and the β-catenin binding domain of TCF4. […]
After 10 to 12 days culture in the continuous presence of the selection agents, the resulting cell lines were judged to be stably transfected. For fluorescence microscopy, aliquots of cells were transferred to Lab-Tek chambered cover glasses (Nalge Nunc International, Naperville USA) and allowed to adhere for at least 24 hours to reach about 80% confluence. Images were collected using a Zeiss LSM410 inverted confocal fluorescence microscope (Zeiss, Jena, Germany) using x40 (oil immersion) objective. […]

The subject of test [5] is translocation of β-catenin to the nucleus (GSK3β inhibited by lithium ions). Briefly: TDCzip: β-catenin translocation dependent complementation with leucine zippers, CHO[ps1736+ps1758]. The format is cell-based, chinese hamster. The conditions noted are these: 5 mM LiCl for 16 hours. The text has this: In this example, complementary halves of GFP are fused separately to β-catenin and to histone H2B and co-expressed within cells. The β-catenin construct is expected to be localised entirely in the cell cytoplasm at a low level, its concentration effectively controlled by the activity of the protein kinase GSK3β. The H2B construct will be localised in the nuclei of cells by the highly basic histone moeity. […] However, when GSK3β is inhibited by lithium ions, the cytoplasmic level of the β-catenin construct is expected to increase in the cytoplasm, and to translocate in significant fashion to the nucleus. Both constructs have been engineered to contain a leucine zipper domain. […] The development of nuclear fluorescence in lithium-treated cells therefore effectively reports on the translocation of β-catenin to the nucleus. […]
After 10 to 12 days culture in the continuous presence of the selection agents, the resulting cell lines were judged to be stably transfected. For fluorescence microscopy, aliquots of cells were transferred to Lab-Tek chambered cover glasses (Nalge Nunc International, Naperville USA) and allowed to adhere for at least 24 hours to reach about 80% confluence. […] Image collection, subsequent measurement and analysis of fluorescence intensity were all controlled by IPLab Spectrum for Windows software (Scanalytics, Fairfax, Va. USA). […]

In test [6] the test system is translocation of β-catenin to the nucleus (GSK3β inhibited by lithium; FKBP:FRB induced by rapamycin). In words: TDCrap: β-catenin translocation dependent complementation with rapamycin-inducible FKBP:FRB, CHO ps1809 with ps1827. The class given is cell-based, chinese hamster. The conditions noted are these: 5 mM LiCl for 16 hours.
Excerpt: In this example, complementary halves of GFP are fused separately to β-catenin and to histone H2B and co-expressed within cells. The β-catenin construct is expected to be localised entirely in the cell cytoplasm at a low level, its concentration effectively controlled by the activity of the protein kinase GSK3β. The H2B construct will be localised in the nuclei of cells by the highly basic histone moeity. […] Both constructs have also been engineered to contain inducible interaction domains. […] The H2B construct includes FRB, which is the 93 amino acid portion of FRAP, the large PI3Kinase homolog FRAP (also known as mTOR or RAFT).
Plasmids ps1809 with ps1827 were co-transfected into chinese hamster ovary cells (CHO) using the transfection agent FuGENE™ 6 (Boehringer Mannheim Corp, USA) according to the method recommended by the suppliers. […]
After 10 to 12 days culture in the continuous presence of the selection agents, the resulting cell lines were judged to be stably transfected. For fluorescence microscopy, aliquots of cells were transferred to Lab-Tek chambered cover glasses (Nalge Nunc International, Naperville USA) and allowed to adhere for at least 24 hours to reach about 80% confluence. […] Images were collected using a Zeiss LSM410 inverted confocal fluorescence microscope (Zeiss, Jena, Germany) using x40 (oil immersion) objective. […]

As for “NtermE[F64L]YFP172-FKBP (from UniProt P62942 1-108)”, the EC50 of FK506 in competition with 100 nM rapamycin, EYFP fluorescence/cell, 16 hours, 'black' group in test [1] came out at 1200 nM.

For `CO[C@H]1C[C@@H]2CC[C@@H](C)[C@@](O)(O2)C(=O)C(=O)N2CCCC[C@H]2C(=O)O[C@H]([C@H](C)C[C@@H]2CC[C@@H](O)[C@H](OC)C2)CC(=O)[C@H](C)/C=C(\C)[C@@H](O)[C@@H](OC)C(=O)[C@H](C)C[C@H](C)/C=C/C=C/C=C/1C` [rapamycin], the “proportion of cells with significantly greater EYFP fluorescence” value in test [2] (after 4 hours) is on record as “approximately 40%”. In addition, the “proportion of the cell population responding” value in test [2] (after 16 hours) is on record as “approximately 70%”.

Consider “NtermE[F64L]YFP172-FRB (from UniProt P42345 2025-2114)”, for which, in test [3], the EC50 of FK506 in competition with 100 nM rapamycin, EYFP fluorescence/cell, 16 hours, 'mid to low-green' group was 1200 nM; the EC50 of rapamycin, dose-response of EYFP fluorescence at 7 and 30 hours, 'black' FACS group was determined as 100 nM; the EC50 of rapamycin, dose-response of EYFP fluorescence at 7 and 30 hours, 'medium to low-green' FACS group is 250 nM; the half-time for development of cellular EYFP fluorescence after 3 µM rapamycin worked out at 5 h. For the same compound, in test [3], the increase in EYFP fluorescence with rapamycin over the unstimulated value, 'medium to low-green' and 'black' FACS groups is over 20 fold; the share of cells responding 16 hours after 1 µM rapamycin is 70 % of cells; the share of cells with EYFP fluorescence before rapamycin (t=0) was < 5 % of cells; the share of cells with greater EYFP fluorescence 4 hours after 1 µM rapamycin is 40 % of cells.

On to `[Cl-].[Li+]` [LiCl, lithium chloride], for which the “number of cells containing fluorescent GFP (nuclear)” value in test [4] and in test [6] was “the number of cells containing fluorescent GFP increases greatly” in each case. Also, in test [5], the “cells with GFP-bright nuclei” value is recorded as “a fraction of these cells display GFP-bright nuclei”.
